The record followed here is paper PMC5052687 (2016).

The chains are these.
B1: MCvar1 PfEMP1 CIDRα2.8 domain (residues 576-745, C626S) [Plasmodium falciparum] / human CD36 ectodomain (residues 35-439) with C-terminal BAP tag, biotinylated [modified: biotin on the BAP tag (in vitro, BirA ligase); biotin on the BAP tag … (parent complex)
chain 1: EDKIMSYNAFFWMWVHDMLIDSIKWRDEHGRCINKDKGKTCIKGCNKKCISFQKWVEQKKTEWGKIKDHFRKQKDIPKDWTHDDFLQTLLMKDLLLEIIQDTYGDANEIKRIEALLEQAGVGGIDFAALAGLYTKGFVAEKDTTIDKLLQHEQKEADKCLKTHTDDTCPP
chain 2: QKTIKKQVVLEEGTIAFKNWVKTGTEVYRQFWIFDVQNPQEVMMNSSNIQVKQRGPYTYRVRFLAKENVTQDAEDNTVSFLQPNGAIFEPSLSVGTEADNFTVLNLAVAAASHIYQNQFVQMILNSLINKSKSSMFQVRTLRELLWGYRDPFLSLVPYPVTTTVGLFYPYNNTADGVYKVFNGKDNISKVAIIDTYKGKRNLSYWESHCDMINGTDAASFPPFVEKSQVLQFFSSDICRSIYAVFESDVNLKGIPVYRFVLPSKAFASPVENPDNYCFCTEKIISKNCTSYGVLDISKCKEGRPVYISLPHFLYASPDVSEPIDGLNPNEEEHRTYLDIEPITGFTLQFAKRLQVNLLVKPSEKIQVLKNLKRNYIVPILWLNETGTIGDEKANMFRSQVTGKIN

Variants of B1 are the subject of the test. As to the kind of experiment: SPR; plateau of the top sensorgram (highest analyte concentration of the series); concentrations not given; parent: 62; read off a plot.
As to chain 1 D75A, the response was roughly 20 RU.
